Targets include Soli C1 (Solenopsis invicta); Soli C2 (Solenopsis invicta); Soli E1 (Solenopsis invicta).
Common to all, as to assay: cell-based or functional assay
The next experiment concerns the target T1, Soli E2 (Solenopsis invicta).
T1 chain: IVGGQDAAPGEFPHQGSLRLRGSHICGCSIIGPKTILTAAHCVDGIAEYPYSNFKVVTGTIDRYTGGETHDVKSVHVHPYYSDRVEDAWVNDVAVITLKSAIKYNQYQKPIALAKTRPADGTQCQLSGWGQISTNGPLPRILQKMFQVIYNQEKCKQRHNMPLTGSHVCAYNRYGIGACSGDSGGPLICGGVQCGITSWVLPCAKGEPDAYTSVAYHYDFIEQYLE

Bounds are passed on as bounds.

Soli C2 (Solenopsis invicta), sequence (main, as listed by the source): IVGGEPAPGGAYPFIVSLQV
Soli E1 (Solenopsis invicta), sequence (main, as listed by the source): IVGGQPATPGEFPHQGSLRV
Soli C1 (Solenopsis invicta), sequence (Q7SIG2 other isoform, or with tags, fused parts or gaps): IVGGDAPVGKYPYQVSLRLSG

B1: Lima Bean Trypsin Inhibitor (other, UniProt P01056 1-83, looked up)
chain: SGHHEHSTDXPSXSSKPCCXHCACTKSIPPQCRCTDLRLDSCHSACKSCICTLSIPAQCVCXXIXDFCYEPCKSSHSDDDNNN
modifications: not fully specified
Usually IC50 stands for the concentration needed to halve the response being measured. With B1, the “IC50” value is 18.4 nM with Soli C1, 1.46 nM with Soli C2, > 50 nM in the experiment with Soli E1 and > 50 nM with Soli E2.

The record behind these values is patent US6399759 (UNIVERSITY OF GEORGIA RESEARCH FOUNDATION, dated 2002).
